One assay relates to ob/ob mice. The assay is described as follows: Food intake of ob/ob mice under daily subcutaneous injections. Conditions: daily subcutaneous injections of 25 μg over a 12 day period. Type of assay: in vivo, mouse. On the procedure: A synthetic peptide with a sequence identical to that of mouse leptin between residues 117-138 was obtained and found to stimulate the oleate-induced binding of ^125I-LDL in primary cultures of rat hepatocytes (FIG. 11B, insert). Daily subcutaneous injections of 25 μg of this synthetic leptin peptide to ob/ob mice had no effect on the food intake over a 12 day period (7.6±0.4 g/day in ob/ob receiving saline and 6.7±0.3 g/day in ob/ob receiving peptide; n=4, NS). Daily injections of 25 μg of mouse leptin caused a reduction of food intake to 4.7±0.5 g/day (n=3; p<0.003 versus controls).

The subject of a further assay is LSR. Put plainly: LSR activity (oleate-induced 125I-LDL binding, uptake, degradation) in PLC cells. Type of assay: cell-based, human. Conditions: 10 ng/mL recombinant leptin. On the procedure:
FIGS. 5A, 5B, 5C, and 5D show the stimulatory effect of leptin on LSR activity in PLC and suppression of this effect by 81B antibody. For FIGS. 5A, 5B, and 5C, cultured PLC cells were incubated at 37° C. for 30 min with increasing concentrations of human recombinant leptin in Buffer A. After this, 0.5 mM oleate and 20 μg/mL ^125I-LDL were added, and cells were further incubated at 37° C. for 2 h. Cells were washed, and the amount of oleate-induced ^125I-LDL bound (5A), internalized (5B) and degraded (5C) were measured. […] After washing, the amount of ^125I-LDL binding was determined, and is shown here as the mean±SD of triplicate determinations.
FIGS. 8A and 8B show the effect of mouse or human leptin on LSR activity in primary cultures of rat hepatocytes or a human liver cell line (PLC). […] The cells were washed, and the amount of oleate-induced ^125I-LDL bound and degraded was measured as described previously (Bihain, B. E., and Yen, F. T. (1992). Free fatty acids activate a high-affinity saturable pathway for degradation of low density lipoproteins infibroblasts from a subject homozygous for familial hypercholesterolemia. Biochemistry 31, 4628-4636.
FIGS. 35A and 35B show graphs of LSR activity and mRNA expression measured in PLC cells preincubated 24 h with leptin. […] Cells were washed, and the amount of oleate-induced ^125I-LDL binding was measured as described previously. […]

B1: mouse leptin: recombinant mouse leptin, laboratory-prepared or commercial (Sigma, Calbiochem) (protein, UniProt P41160 22-167, looked up)
Leptin: VPIQKVQDDTKTLIKTIVTRINDISHTQSVSAKQRVTGLDFIPGLHPILSLSKMDQTLAVYQQVLTSLPSQNVLQIANDLENLRDLLHLLAFSKSCSLPQTSGLQKPESLDGVLEASLYSTEVVALSRLQGSLQDILQQLDVSPEC
In the case of B1, in the assay with ob/ob mice, the food intake worked out at 4.7 ± 0.5 g/day. Also, the “stimulation of LSR activity in human PLC cells” value in the assay on LSR is “inactive”.

The values above are taken from patent publication US7470669B2, “Isolated polypeptide comprising a leptin fragment” (Serono Genetics Institute, S.A., priority 1999, dated 2008).
